The results in this text go back to publication PMC9728131, “Host acid signal controls Salmonella flagella biogenesis through CadC-YdiV axis”.

Series [1] addresses T1, CadCc (Escherichia coli K-12 MG1655 (cloning template per Methods; text discusses Salmonella CadC)) (UniProt P23890).
T1 sequence: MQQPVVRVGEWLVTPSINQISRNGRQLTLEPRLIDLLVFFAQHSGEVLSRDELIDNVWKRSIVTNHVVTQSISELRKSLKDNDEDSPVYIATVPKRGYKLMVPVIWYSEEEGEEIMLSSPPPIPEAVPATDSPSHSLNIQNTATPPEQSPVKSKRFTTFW
Briefly: BLI. The conditions noted are these: EMSA: 20 mM Tris-HCl pH 8.0, 100 mM NaCl, 1 mM MgCl2, 1 mM ZnCl2, 4% glycerol, RT 10 min (competition 4 C, 30 min + 30 min); BLI: PBS + 1 mM ZnCl2 (CadCc …).

Series [2] has as its target T2, H-NS (Escherichia coli K-12 MG1655 (cloning …, UniProt P0ACF8 1-137)).
T2 sequence: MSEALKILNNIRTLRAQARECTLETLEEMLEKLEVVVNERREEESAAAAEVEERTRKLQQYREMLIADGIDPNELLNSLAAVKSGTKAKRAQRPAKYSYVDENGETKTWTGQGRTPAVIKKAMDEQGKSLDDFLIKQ
Kind of series: BLI; PBS without ZnCl2; printed unit umoL; kdis 0.0145/s; EMSA: 20 mM Tris-HCl pH 8.0, 100 mM NaCl, 1 mM MgCl2, 1 mM ZnCl2, 4% glycerol, RT 10 min (competition 4 C, 30 min + 30 min); BLI: PBS + 1 mM ZnCl2 (CadCc, 50 ug/mL) or PBS (H-NS), 25 C; footprinting: 30 C, 30 min. The conditions noted are these: protein: recombinant; tags: N-terminal 6xHis (pGL01); chain copies: 2; Methods: 'C-terminus'); blunt. A general note: In BLI a coated tip is dipped into the sample, and binding shifts an interference pattern.

Consider “TCATCATATATAATGATAT (double strand) [19 nt overlap DNA of ydiV promoter]”, for which, in series [1], the dissociation constant (Kd) was 203 nM.

B1: 19 nt overlap DNA of ydiV promoter (dsDNA)
DNA 1: TCATCATATATAATGATAT
DNA 2: ATATCATTATATATGATGA
Consider B1, for which the Kd in series [2] was determined as 533 ± 12.7 nM.

Broadly, the Kd is a measure of binding affinity in units of concentration.
